For one substance, stoichiometry N results are on record in article PMC2516325.

Broadly, the stoichiometry N is the number of molecules, sites or subunits per partner or assembly.

The target in this assay is recombinant CquiOBP1, odorant-binding protein from Culex pipiens quinquefasciatus (Culex pipiens quinquefasciatus). In words: SEC; gel filtration of purified recombinant CquiOBP1 on Superdex-75 26/60, 150 mM NaCl, 20 mM Tris-HCl pH 8; monomer and dimer peaks isolated; the dimer slowly dissociates into monomer (1 hour at room temperature, overnight at 4°C). On the technique in general: In gel filtration, larger molecules generally elute earlier.

Consider “recombinant CquiOBP1, odorant-binding protein from Culex pipiens quinquefasciatus (natural protein)”, for which the stoichiometry N was determined as 2.
